# ± gives the uncertainty stated by the source.
# Experiment: protein stability index of a GFP-peptide fusion (yeast GPS) (PSI 1-4); higher = more stable; sorted into four equal gates, so the index is relative within each strain
# How it was run: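 Mid-log yeast cultures in leucine-free medium, carrying a pooled plasmid library, were sorted into four equal gates by their GFP/Cherry fluorescence ratio. Each plasmid expressed Cherry along with GFP fused upstream of a tiled 17-residue yeast protein peptide. Plasmids recovered from each gate were PCR-amplified and Illumina-sequenced, with reads assigned to strains by barcodes. The protein stability index was obtained by summing each gate's read frequency weighted by its gate number.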
Sequence,protein stability index (doa10∆),protein stability index (pdr5∆),protein stability index (san1∆),protein stability index (ubr1∆)
EVSGSIQYKKEYEELKE [SMC1],3.59 ± 0.15,3.15 ± 0.14,3.29 ± 0.089,3.35 ± 0.068
GISSAYIKSATLYSVKS [SNU114],1.39 ± 0.12,1.43 ± 0.11,1.67 ± 0.26,1.75 ± 0.17
RSNTGALMRCSFEETVE [RPO21],3 ± 0.074,3.02 ± 0.077,3.06 ± 0.061,3.01 ± 0.067
GLQGSGKTTSCTKLAVY [SRP54],2.47 ± 0.12,2.91 ± 0.077,1.97 ± 0.27,2.66 ± 0.089
DQDELVQPPLDKFPYKK [SWP82],3.11 ± 0.088,3.26 ± 0.093,3.13 ± 0.059,3.08 ± 0.066
VFQDNVYKIYNHVMPLK [SIN4],1.65 ± 0.07,1.69 ± 0.096,1.69 ± 0.098,1.62 ± 0.049
ISQSQLGKFKNIIASPL [SIN4],1.73 ± 0.067,1.96 ± 0.049,2.01 ± 0.088,2.08 ± 0.057
ISQPKSMSGRISAKDMG [BRR2],3.1 ± 0.06,3.16 ± 0.055,3.08 ± 0.058,3.15 ± 0.046
FDDLEVEELPTFHDYDM [RRP42],2.6 ± 0.069,2.63 ± 0.064,2.79 ± 0.043,2.88 ± 0.043
KYHKEQFIKSNFEKILL [SRB8],2.21 ± 0.085,2.32 ± 0.047,1.95 ± 0.075,2.37 ± 0.057
NGIIMNGTLIGCVSYSP [YMR153W/NUP53],1.99 ± 0.066,1.95 ± 0.076,2.46 ± 0.21,2.24 ± 0.083
NSQTVSGTPITQTESKK [SNF2],2.67 ± 0.05,2.27 ± 0.05,2.7 ± 0.053,2.39 ± 0.039
TMLITGQRPDRATTYEK [SIN4],3.06 ± 0.11,3.09 ± 0.15,3.25 ± 0.07,3.22 ± 0.05
ESDYEPNNETSVLSSKP [SIR3],2.99 ± 0.089,3.08 ± 0.11,3.02 ± 0.11,3.01 ± 0.07
KAGLMTGGISGDANNRW [SMC1],2.38 ± 0.11,2.31 ± 0.088,2.54 ± 0.062,2.51 ± 0.074
VTRFTTWNGSPFDNSTE [YJL039C/NUP192],2.44 ± 0.079,2.17 ± 0.052,2.3 ± 0.099,2.41 ± 0.067
EECSGRRWNKLCTLNDS [YGL100W/SEH1],2.99 ± 0.051,3.17 ± 0.053,2.82 ± 0.05,2.78 ± 0.041
STDNEAITISNSIDINY [SMC1],2.62 ± 0.053,2.93 ± 0.057,2.67 ± 0.045,2.88 ± 0.039
LERRELEGTRVSLEERT [SMC4],3.4 ± 0.096,3.35 ± 0.082,3.29 ± 0.063,3.36 ± 0.1
GYFGKVGMRYFHKQQAH [RPL28],2.6 ± 0.14,2.76 ± 0.095,2.89 ± 0.12,2.84 ± 0.05
VLRLNAIPLLKVLRKFR [NUT1],1.98 ± 0.052,2.21 ± 0.054,2.06 ± 0.084,2.3 ± 0.038
DKLYIHFVQEEPLAFYL [RGR1],2.21 ± 0.041,2.35 ± 0.045,2.4 ± 0.045,2.32 ± 0.033
CRKLSFSDKVNALWILV [ITC1],1.72 ± 0.075,1.8 ± 0.044,1.5 ± 0.1,1.85 ± 0.051
RRLLNLYNDNNKNNNNR [SWI1],3.11 ± 0.12,2.86 ± 0.089,2.22 ± 0.16,2.99 ± 0.058
LGMLDDNKMDSVKEDVK [SMC4],2.12 ± 0.15,2.61 ± 0.13,2.09 ± 0.24,–
EAPFLTSGTSSEQFNVW [GAL11],2.56 ± 0.091,3.27 ± 0.072,3.02 ± 0.062,3.21 ± 0.13

Sequence,protein stability index (doa10∆),protein stability index (pdr5∆),protein stability index (san1∆),protein stability index (ubr1∆)
IPPLNKSLAMEHKSQVV [CSN12],1.26 ± 0.063,1.63 ± 0.078,1.49 ± 0.12,1.35 ± 0.071
NGGITNTATNALRPSDI [YOR098C/NUP1],2.63 ± 0.13,2.69 ± 0.14,2.11 ± 0.12,2.84 ± 0.12
TKDPDEQQLFEIFAFGN [CSN9],3.18 ± 0.13,3.09 ± 0.088,3.17 ± 0.052,2.83 ± 0.053
KELQLEKESVEKQHENA [SMC3],3.02 ± 0.14,3.32 ± 0.099,2.85 ± 0.071,3.15 ± 0.054
EIFAFGNIKDLPENIIL [CSN9],2.7 ± 0.066,2.92 ± 0.056,2.8 ± 0.043,2.93 ± 0.042
ESKDLLRASFNKLSSIL [SRB4],1.08 ± 0.097,1.33 ± 0.074,1.22 ± 0.16,1.1 ± 0.094
GVMSLLQKSSKSMITSE [YAR002W/NUP60],2.46 ± 0.06,2.61 ± 0.062,2.19 ± 0.076,2.95 ± 0.063
ATGFGAHMANPLLRKVV [PRE4],3.29 ± 0.14,3.02 ± 0.13,1.58 ± 0.17,3.34 ± 0.18
ADLDSLIIRNDSLSGAV [RPT3],3.12 ± 0.077,3.06 ± 0.058,2.82 ± 0.049,3 ± 0.049
FNGADIRNCATEAGFFA [RPT4],3.32 ± 0.065,3.38 ± 0.079,3.3 ± 0.057,3.22 ± 0.048
RTQPWSIMPDLYFYRNP [RPS0B],2.55 ± 0.051,2.85 ± 0.056,2.85 ± 0.043,2.6 ± 0.055
EILGTAQSVGCRVDFKN [RPL12A],2.12 ± 0.06,2.25 ± 0.06,2.46 ± 0.11,2.94 ± 0.055
AIKYGYEDSGSTYKHDR [SRB4],3.22 ± 0.17,–,3.43 ± 0.14,3.15 ± 0.14
PSEDVAALKKTRKAARP [RPL6A],2.83 ± 0.062,3.02 ± 0.048,2.95 ± 0.039,3.05 ± 0.047
GHYQAFIRDELDENKWY [UBP6],1.49 ± 0.057,1.88 ± 0.047,1.53 ± 0.12,1.85 ± 0.063
MEFSNLYKEFFNEKFPS [NUT1],–,3.17 ± 0.15,2.98 ± 0.069,3.04 ± 0.1
GVAASQGSMSERPPYIL [SIR2],2.75 ± 0.11,3.08 ± 0.089,2.72 ± 0.097,3.16 ± 0.085
LKISLIQIFRAHLWQKI [PRP8],1.17 ± 0.077,1.18 ± 0.055,1.13 ± 0.13,1.12 ± 0.057
HPYLFEGAEPGPPYTTD [ISW2],3.04 ± 0.06,3.14 ± 0.066,3.07 ± 0.05,3.18 ± 0.053
IQGFYWAVKEGPLAEEP [SNU114],1.58 ± 0.089,1.35 ± 0.086,1.27 ± 0.21,1.22 ± 0.04
MIQTPRELLNPRYTYHT [YML031W/NDC1],2.95 ± 0.078,2.83 ± 0.081,2.98 ± 0.11,3.35 ± 0.14
ARYSIIREINYTMSNHG [RPO31],–,–,–,1.44 ± 0.23
LYLQDSNDKFVHVQLLI [SRB8],1.96 ± 0.055,2.06 ± 0.057,1.93 ± 0.066,2.17 ± 0.042
IGQLMAFDKHMNLVLNE [SMB1],2.04 ± 0.15,2.39 ± 0.2,2.72 ± 0.16,2.57 ± 0.051
LKNKYESYDAALSLHRE [FAS2],3.181 ± 0.019,3.134 ± 0.016,3.083 ± 0.014,3.034 ± 0.014
KDLVIVSNLMGRNIGHP [RPB3],3.22 ± 0.051,3.1 ± 0.05,3.18 ± 0.039,2.88 ± 0.037

# Source: the supplement of paper PMC9732359
